Measured values: publication PMC8953949, “Identifying Function Determining Residues in Neuroimmune Semaphorin 4A” (International Journal of Molecular Sciences, 2022)

T1: recombinant human Plexin B1 with a 6X His tag at C-terminus (human, UniProt O43157 20-1490)
T1 construct: Plexin B1, human; Only the molecular weight (66 kDa) is printed; it must be a fragment of the extracellular part, limits unknown; also called rhPlexin B1; rhPlexin B1-His; source: bought: GenScript; not shown: His6, C-terminal, kept
T1 sequence (looked up): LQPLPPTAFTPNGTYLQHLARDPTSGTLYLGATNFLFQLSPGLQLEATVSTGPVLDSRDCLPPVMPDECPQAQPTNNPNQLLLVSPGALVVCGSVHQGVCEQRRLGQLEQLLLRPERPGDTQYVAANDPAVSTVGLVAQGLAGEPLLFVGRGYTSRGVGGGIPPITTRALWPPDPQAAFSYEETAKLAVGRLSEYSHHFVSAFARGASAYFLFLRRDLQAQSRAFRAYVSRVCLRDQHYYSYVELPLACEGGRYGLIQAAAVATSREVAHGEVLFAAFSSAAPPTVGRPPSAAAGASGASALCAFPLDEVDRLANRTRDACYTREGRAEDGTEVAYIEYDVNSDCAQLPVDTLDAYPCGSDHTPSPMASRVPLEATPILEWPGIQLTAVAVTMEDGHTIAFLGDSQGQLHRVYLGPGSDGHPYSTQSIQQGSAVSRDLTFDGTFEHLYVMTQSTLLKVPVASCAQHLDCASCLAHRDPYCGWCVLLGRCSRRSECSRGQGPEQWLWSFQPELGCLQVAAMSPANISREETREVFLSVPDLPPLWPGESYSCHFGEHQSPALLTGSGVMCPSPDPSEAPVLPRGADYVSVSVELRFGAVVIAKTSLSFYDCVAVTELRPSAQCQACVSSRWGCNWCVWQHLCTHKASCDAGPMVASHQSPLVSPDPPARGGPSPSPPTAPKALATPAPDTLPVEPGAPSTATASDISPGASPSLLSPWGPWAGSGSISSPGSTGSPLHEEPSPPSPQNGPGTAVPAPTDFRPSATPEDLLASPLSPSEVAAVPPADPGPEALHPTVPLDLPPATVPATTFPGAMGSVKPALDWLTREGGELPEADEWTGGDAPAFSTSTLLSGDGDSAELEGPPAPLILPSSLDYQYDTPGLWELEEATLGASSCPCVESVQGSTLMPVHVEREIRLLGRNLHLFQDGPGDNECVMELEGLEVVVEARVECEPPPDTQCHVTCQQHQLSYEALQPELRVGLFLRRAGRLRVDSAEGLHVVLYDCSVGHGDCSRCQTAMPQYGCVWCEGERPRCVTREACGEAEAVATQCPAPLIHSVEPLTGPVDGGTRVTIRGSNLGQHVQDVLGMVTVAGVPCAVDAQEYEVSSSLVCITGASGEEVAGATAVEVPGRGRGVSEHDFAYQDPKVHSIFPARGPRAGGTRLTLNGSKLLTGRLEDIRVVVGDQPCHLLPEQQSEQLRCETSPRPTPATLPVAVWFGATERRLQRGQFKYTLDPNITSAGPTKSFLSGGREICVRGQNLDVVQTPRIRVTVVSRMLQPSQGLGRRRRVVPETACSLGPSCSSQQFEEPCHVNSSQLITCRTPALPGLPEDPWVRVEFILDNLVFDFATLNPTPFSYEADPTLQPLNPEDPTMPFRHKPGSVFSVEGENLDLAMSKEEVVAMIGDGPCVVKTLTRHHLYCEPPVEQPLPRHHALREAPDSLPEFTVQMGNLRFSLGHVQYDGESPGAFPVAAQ

B1: recombinant human Plexin B1 with a 6X His tag at C-terminus (receptor)
chain: LQPLPPTAFTPNGTYLQHLARDPTSGTLYLGATNFLFQLSPGLQLEATVSTGPVLDSRDCLPPVMPDECPQAQPTNNPNQLLLVSPGALVVCGSVHQGVCEQRRLGQLEQLLLRPERPGDTQYVAANDPAVSTVGLVAQGLAGEPLLFVGRGYTSRGVGGGIPPITTRALWPPDPQAAFSYEETAKLAVGRLSEYSHHFVSAFARGASAYFLFLRRDLQAQSRAFRAYVSRVCLRDQHYYSYVELPLACEGGRYGLIQAAAVATSREVAHGEVLFAAFSSAAPPTVGRPPSAAAGASGASALCAFPLDEVDRLANRTRDACYTREGRAEDGTEVAYIEYDVNSDCAQLPVDTLDAYPCGSDHTPSPMASRVPLEATPILEWPGIQLTAVAVTMEDGHTIAFLGDSQGQLHRVYLGPGSDGHPYSTQSIQQGSAVSRDLTFDGTFEHLYVMTQSTLLKVPVASCAQHLDCASCLAHRDPYCGWCVLLGRCSRRSECSRGQGPEQWLWSFQPELGCLQVAAMSPANISREETREVFLSVPDLPPLWPGESYSCHFGEHQSPALLTGSGVMCPSPDPSEAPVLPRGADYVSVSVELRFGAVVIAKTSLSFYDCVAVTELRPSAQCQACVSSRWGCNWCVWQHLCTHKASCDAGPMVASHQSPLVSPDPPARGGPSPSPPTAPKALATPAPDTLPVEPGAPSTATASDISPGASPSLLSPWGPWAGSGSISSPGSTGSPLHEEPSPPSPQNGPGTAVPAPTDFRPSATPEDLLASPLSPSEVAAVPPADPGPEALHPTVPLDLPPATVPATTFPGAMGSVKPALDWLTREGGELPEADEWTGGDAPAFSTSTLLSGDGDSAELEGPPAPLILPSSLDYQYDTPGLWELEEATLGASSCPCVESVQGSTLMPVHVEREIRLLGRNLHLFQDGPGDNECVMELEGLEVVVEARVECEPPPDTQCHVTCQQHQLSYEALQPELRVGLFLRRAGRLRVDSAEGLHVVLYDCSVGHGDCSRCQTAMPQYGCVWCEGERPRCVTREACGEAEAVATQCPAPLIHSVEPLTGPVDGGTRVTIRGSNLGQHVQDVLGMVTVAGVPCAVDAQEYEVSSSLVCITGASGEEVAGATAVEVPGRGRGVSEHDFAYQDPKVHSIFPARGPRAGGTRLTLNGSKLLTGRLEDIRVVVGDQPCHLLPEQQSEQLRCETSPRPTPATLPVAVWFGATERRLQRGQFKYTLDPNITSAGPTKSFLSGGREICVRGQNLDVVQTPRIRVTVVSRMLQPSQGLGRRRRVVPETACSLGPSCSSQQFEEPCHVNSSQLITCRTPALPGLPEDPWVRVEFILDNLVFDFATLNPTPFSYEADPTLQPLNPEDPTMPFRHKPGSVFSVEGENLDLAMSKEEVVAMIGDGPCVVKTLTRHHLYCEPPVEQPLPRHHALREAPDSLPEFTVQMGNLRFSLGHVQYDGESPGAFPVAAQ
B2: WT rhSema4A-Fc (GenScript) (Fc fusion, human, UniProt Q9H3S1 33-683, looked up)
chain: GGGQGPMPRVRYYAGDERRALSFFHQKGLQDFDTLLLSGDGNTLYVGAREAILALDIQDPGVPRLKNMIPWPASDRKKSECAFKKKSNETQCFNFIRVLVSYNVTHLYTCGTFAFSPACTFIELQDSYLLPISEDKVMEGKGQSPFDPAHKHTAVLVDGMLYSGTMNNFLGSEPILMRTLGSQPVLKTDNFLRWLHHDASFVAAIPSTQVVYFFFEETASEFDFFERLHTSRVARVCKNDVGGEKLLQKKWTTFLKAQLLCTQPGQLPFNVIRHAVLLPADSPTAPHIYAVFTSQWQVGGTRSSAVCAFSLLDIERVFKGKYKELNKETSRWTTYRGPETNPRPGSCSVGPSSDKALTFMKDHFLMDEQVVGTPLLVKSGVEYTRLAVETAQGLDGHSHLVMYLGTTTGSLHKAVVSGDSSAHLVEEIQLFPDPEPVRNLQLAPTQGAVFVGFSGGVWRVPRANCSVYESCVDCVLARDPHCAWDPESRTCCLLSAPNLNSWKQDMERGNPEWACASGPMSRSLRPQSRPQIIKEVLAVPNSILELPCPHLSALASYYWSHGPAAVPEASSTVYNGSLLLIVQDGVGGLYQCWATENGFSYPVISYWVDSQDQTLALDPELAGIPREHVKVPLTRVSGGAALAAQQSYWPH
notes: Semaphorin 4A, human; also called WT Sema4A; WT Sema4A-Fc; source: bought: GenScript
B3: M198A rhSema4A-Fc (Fc fusion, human, UniProt Q9H3S1 33-683, looked up)
chain: GGGQGPMPRVRYYAGDERRALSFFHQKGLQDFDTLLLSGDGNTLYVGAREAILALDIQDPGVPRLKNMIPWPASDRKKSECAFKKKSNETQCFNFIRVLVSYNVTHLYTCGTFAFSPACTFIELQDSYLLPISEDKVMEGKGQSPFDPAHKHTAVLVDGMLYSGTANNFLGSEPILMRTLGSQPVLKTDNFLRWLHHDASFVAAIPSTQVVYFFFEETASEFDFFERLHTSRVARVCKNDVGGEKLLQKKWTTFLKAQLLCTQPGQLPFNVIRHAVLLPADSPTAPHIYAVFTSQWQVGGTRSSAVCAFSLLDIERVFKGKYKELNKETSRWTTYRGPETNPRPGSCSVGPSSDKALTFMKDHFLMDEQVVGTPLLVKSGVEYTRLAVETAQGLDGHSHLVMYLGTTTGSLHKAVVSGDSSAHLVEEIQLFPDPEPVRNLQLAPTQGAVFVGFSGGVWRVPRANCSVYESCVDCVLARDPHCAWDPESRTCCLLSAPNLNSWKQDMERGNPEWACASGPMSRSLRPQSRPQIIKEVLAVPNSILELPCPHLSALASYYWSHGPAAVPEASSTVYNGSLLLIVQDGVGGLYQCWATENGFSYPVISYWVDSQDQTLALDPELAGIPREHVKVPLTRVSGGAALAAQQSYWPH
notes: Semaphorin 4A, human; as the WT Sema4A-Fc of GenScript with M198A; Similar molecular size as the WT Sema4A-Fc protein prepared similarly; also called Sema4A-M198A; Mu M198A Sema4A; source: prepared by GenScript
B4: F223A rhSema4A-Fc (Fc fusion, human, UniProt Q9H3S1 33-683, looked up)
chain: GGGQGPMPRVRYYAGDERRALSFFHQKGLQDFDTLLLSGDGNTLYVGAREAILALDIQDPGVPRLKNMIPWPASDRKKSECAFKKKSNETQCFNFIRVLVSYNVTHLYTCGTFAFSPACTFIELQDSYLLPISEDKVMEGKGQSPFDPAHKHTAVLVDGMLYSGTMNNFLGSEPILMRTLGSQPVLKTDNALRWLHHDASFVAAIPSTQVVYFFFEETASEFDFFERLHTSRVARVCKNDVGGEKLLQKKWTTFLKAQLLCTQPGQLPFNVIRHAVLLPADSPTAPHIYAVFTSQWQVGGTRSSAVCAFSLLDIERVFKGKYKELNKETSRWTTYRGPETNPRPGSCSVGPSSDKALTFMKDHFLMDEQVVGTPLLVKSGVEYTRLAVETAQGLDGHSHLVMYLGTTTGSLHKAVVSGDSSAHLVEEIQLFPDPEPVRNLQLAPTQGAVFVGFSGGVWRVPRANCSVYESCVDCVLARDPHCAWDPESRTCCLLSAPNLNSWKQDMERGNPEWACASGPMSRSLRPQSRPQIIKEVLAVPNSILELPCPHLSALASYYWSHGPAAVPEASSTVYNGSLLLIVQDGVGGLYQCWATENGFSYPVISYWVDSQDQTLALDPELAGIPREHVKVPLTRVSGGAALAAQQSYWPH
notes: Semaphorin 4A, human; as the WT Sema4A-Fc of GenScript with F223A; Similar molecular size as the WT Sema4A-Fc protein prepared similarly; also called Sema4A-F223A; Mu F223A Sema4A; source: prepared by GenScript

Key:
[1] = molecular target: recombinant human Plexin B1 with a 6X His tag at C-terminus (human) (UniProt O43157); assay: ELISA; direct ligand-receptor (LRA) ELISA; Plexin B1 (8-10 ug/mL) immobilised on Immulon 2 plates overnight, Sema4 in solution in varying doses from 2 ug/mL; detection by HRP-labelled Abs to tags; fit 'One site-specific binding with Hill slope'
[2] = molecular target: NRP1 (UniProt O14786); assay: ELISA; LRA ELISA of Sema4A and NRP1 (Supplemental Figure S2)
Chain of NRP1 (O14786 22-856): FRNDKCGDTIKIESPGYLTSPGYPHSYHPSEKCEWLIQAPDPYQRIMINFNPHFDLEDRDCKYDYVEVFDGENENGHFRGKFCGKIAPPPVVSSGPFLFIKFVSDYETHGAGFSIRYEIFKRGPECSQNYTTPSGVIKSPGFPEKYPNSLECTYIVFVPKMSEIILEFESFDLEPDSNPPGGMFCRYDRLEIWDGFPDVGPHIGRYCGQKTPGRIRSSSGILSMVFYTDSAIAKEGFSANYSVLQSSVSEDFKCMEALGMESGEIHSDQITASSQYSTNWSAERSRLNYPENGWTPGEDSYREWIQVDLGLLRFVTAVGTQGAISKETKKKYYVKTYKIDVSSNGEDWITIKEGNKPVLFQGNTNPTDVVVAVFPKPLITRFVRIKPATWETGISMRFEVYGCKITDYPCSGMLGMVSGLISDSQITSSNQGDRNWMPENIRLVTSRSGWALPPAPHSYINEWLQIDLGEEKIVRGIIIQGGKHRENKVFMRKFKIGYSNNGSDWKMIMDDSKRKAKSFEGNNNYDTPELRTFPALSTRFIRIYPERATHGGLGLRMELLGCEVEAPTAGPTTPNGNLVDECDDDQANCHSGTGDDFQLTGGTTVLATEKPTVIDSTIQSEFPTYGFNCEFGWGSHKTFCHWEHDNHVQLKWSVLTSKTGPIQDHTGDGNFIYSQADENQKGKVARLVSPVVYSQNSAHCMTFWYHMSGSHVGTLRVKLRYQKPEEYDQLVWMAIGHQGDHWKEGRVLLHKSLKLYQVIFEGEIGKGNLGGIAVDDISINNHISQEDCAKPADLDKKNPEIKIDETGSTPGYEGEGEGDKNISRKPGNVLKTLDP

[3] = molecular target: Plexin B1 (Homo sapiens) (UniProt O43157); assay: SPR; conditions: cited from earlier work
[4] = molecular target: Plexin D1 (UniProt Q9Y4D7); assay: SPR; conditions: cited from earlier work
Chain of Plexin D1 (Q9Y4D7 47-1271): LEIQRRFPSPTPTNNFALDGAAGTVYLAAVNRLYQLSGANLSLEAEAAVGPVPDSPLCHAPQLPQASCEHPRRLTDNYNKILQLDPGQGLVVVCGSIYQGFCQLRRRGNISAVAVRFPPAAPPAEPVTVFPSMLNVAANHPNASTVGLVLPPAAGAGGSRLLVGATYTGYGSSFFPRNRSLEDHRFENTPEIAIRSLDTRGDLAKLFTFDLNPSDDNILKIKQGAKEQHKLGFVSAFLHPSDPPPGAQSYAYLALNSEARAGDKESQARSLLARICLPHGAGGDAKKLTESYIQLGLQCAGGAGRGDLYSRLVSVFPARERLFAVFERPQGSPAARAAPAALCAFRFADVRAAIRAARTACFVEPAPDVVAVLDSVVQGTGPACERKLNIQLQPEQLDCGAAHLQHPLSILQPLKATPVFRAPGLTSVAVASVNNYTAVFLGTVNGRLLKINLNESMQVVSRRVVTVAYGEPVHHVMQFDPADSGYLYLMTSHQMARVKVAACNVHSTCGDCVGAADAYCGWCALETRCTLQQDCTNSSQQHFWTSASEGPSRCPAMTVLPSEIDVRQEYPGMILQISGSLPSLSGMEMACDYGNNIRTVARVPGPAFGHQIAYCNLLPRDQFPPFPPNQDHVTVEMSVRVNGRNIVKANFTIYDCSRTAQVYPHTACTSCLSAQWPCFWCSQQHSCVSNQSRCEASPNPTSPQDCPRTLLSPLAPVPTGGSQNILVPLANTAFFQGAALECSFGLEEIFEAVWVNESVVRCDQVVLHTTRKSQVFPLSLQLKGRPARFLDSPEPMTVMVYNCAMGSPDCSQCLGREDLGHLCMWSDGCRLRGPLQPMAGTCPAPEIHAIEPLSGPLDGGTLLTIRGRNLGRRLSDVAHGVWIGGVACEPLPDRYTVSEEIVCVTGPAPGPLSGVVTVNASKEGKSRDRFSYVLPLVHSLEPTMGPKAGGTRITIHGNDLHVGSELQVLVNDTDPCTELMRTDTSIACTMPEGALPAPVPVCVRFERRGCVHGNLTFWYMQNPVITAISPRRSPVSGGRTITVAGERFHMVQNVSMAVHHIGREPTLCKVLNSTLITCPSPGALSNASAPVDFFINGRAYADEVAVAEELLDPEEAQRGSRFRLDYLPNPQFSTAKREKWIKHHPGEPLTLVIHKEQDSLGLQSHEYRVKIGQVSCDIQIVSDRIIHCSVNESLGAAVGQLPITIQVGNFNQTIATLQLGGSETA

[5] = molecular target: Plexin B1 (Homo sapiens) (UniProt O43157); assay: cell-based ELISA; conditions: cited from earlier work
[6] = molecular target: soluble recombinant human Sema4A (GST- or Fc-tagged, as used in Figures 2 and 3) (human) (UniProt Q9H3S1); assay: ELISA; reverse LRA ELISA; Sema4 (2 ug/mL) coated on Immulon 2 plates overnight at 4 C in 0.1 M sodium carbonate-bicarbonate buffer, rhPlexin B1 in solution in varying doses from 10 ug/mL
[7] = molecular target: T1, recombinant human Plexin B1 with a 6X …; assay: as above; conditions: both partners purified
[8] = molecular target: T1, recombinant human Plexin B1 with a 6X …; assay: ELISA; direct LRA ELISA; Plexin B1-His (10 ug/mL) captured on HIS-Select nickel-coated microplates in Tris buffer overnight, Sema4 in solution in varying doses from 2 ug/mL; conditions: both partners purified

Molecule | Kd [7] [µM] | Kd [8] [µM] | also measured
soluble recombinant human Sema4A (GST- or Fc-tagged, as used in Figures 2 and 3) (from UniProt Q9H3S1 33-683) (ligand) |  |  | Kd [1]: 0.0199 µM; Kd [2]: 0.0283 µM
Sema4D Sema domain (from UniProt Q92854) |  |  | Kd [3]: 5500 µM
Sema4A (from UniProt Q9H3S1) |  |  | Kd [4]: 0.00872 µM
Sema4D (from UniProt Q92854) |  |  | Kd [5]: 0.0009 µM
B1 |  |  | Kd [6]: 0.0354 µM
B2 | 0.0025 | 0.00255 | 
B3 | 0.0017 | 0.00419 | 
B4 | 0.0035 | 0.00282 | 
